Experimental data reported in the nanobody polyreactivity screen of Harvey et al. (2022).

Assay: yeast display, Sf9 membrane polyspecificity reagent, FACS + sequencing; frameworks hold sequencing errors
Summary of the method: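 Galactose induction of a Saccharomyces cerevisiae BJ5465 synthetic nanobody display library ran 36–48 hours. The cells were then stained for 1 hour at 4 °C with 10% biotinylated, detergent-solubilized Sf9 membrane reagent, pulled down on streptavidin microbeads and FACS-sorted into low and high (top ~1%) gates on expression and reagent-binding fluorescence. Labels for polyreactivity follow the gate of origin.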

| Sequence | polyreactivity (PSR sort gate) |
| --- | --- |
| QVQLVESGGGLVQAGGSLRLSCAASGSTFPDYAMGWYRQAPGKEREFVASITWSDGSTYYADSVKGRFTISRDNAKNTVYLQMNSLKPEDTAVYYCIADYVYYYIPVVYEYDYWGQGTQVTVSS | high polyreactivity |
| QVQLVESGGGLVQAGGSLRLSCAASGSTFPDYAMGWYRQAPGKERELVAAIDGSSGSTYYADSVKGRFTISRDNAKNSVYLRMYSLKPEDTAVYYCNVVASLYTYGYWGQGTQVTVSS | low polyreactivity |
| QVQLVESGGGLVQAGGSLRLSCAASGSTFPDYAMGWYRQAPGKERELVAVITIRGGSTYYADSVKGRFTISRDNAKNTVYLQMNSLKPEDTAVYYCAATGQLQGWYDMYYWGQGTQVTVSS | low polyreactivity |
| QVQLVESGGGLVQAGGSLRLSCAASGSTFPEYGMGWYRQAPGKERELVAAINSRGGNTYYADSVKGRFTISRDNAKKTVYLQMNSLKPEDTAVYYCNRLSSYNMDYWGQGTQVTVSS | high polyreactivity |
| QVQLVESGGGLVQAGGSLRLSCAASGSTFPFYDMGWYRQAPGKERELVAAIRYTGNTYYADSVKGRFTISRDNAKNTVYLQMNSLKPEDTAVYYCAADADYWAYGYWGQGTQVTVSS | low polyreactivity |
| QVQLVESGGGLVQAGGSLRLSCAASGSTFPGNAMGWYRQAPGKERELVAAITSTGTTYYADSVKGRFTISRDNAKNTVYLQMNSLKPEDSAVYYCNADRYPDPSTFDYWGQGTLVTVSS | low polyreactivity |
| QVQLVESGGGLVQAGGSLRLSCAASGSTFPGNAMGWYRQAPGKERELVARINDGADTNYADSVKGRFTISRDNAKTTVSLQMNSLKPEDTAVYYCANPYFDGRTHFDSWGQGTQVTVSS | low polyreactivity |
| QVQLVESGGGLVQAGGSLRLSCAASGSTFPGNAMGWYRQSPGKERELVAAISDGVRTSYADSVKGRFTISRDNAKNTVYLQMNSLKPEDTAVYYCNADFARQYDPHVLYITVGMDYWGQGTKVTVSS | low polyreactivity |
| QVQLVESGGGLVQAGGSLRLSCAASGSTFPGYAMGRYRPAPGKERELVAAISASGGSTYYADSVKGRFTISRDYAKNTVYLQMNSLTPEDTAVYYCAKVLSRGASAHVYWGQGTQVTVSS | low polyreactivity |
| QVQLVESGGGLVQAGGSLRLSCAASGSTFPGYAMGWYRQAPGKERELVAAINWRGDSTYYADSVKGRFTISRDNAKNTVYLEMNSLKPEDPAVYFCNTVWGSPSRSSAYDYWGQGTQVTVSS | high polyreactivity |
| QVQLVESGGGLVQAGGSLRLSCAASGSTFPGYAMGWYRQAPGKERELVAAINWRGDSTYYADSVKGRFTISRDNAKNTVYLQMNSLKPEDTAVYYCAAKYNHVTDEYDYWGQGTEVTVSS | high polyreactivity |
| QVQLVESGGGLVQAGGSLRLSCAASGSTFPHNPMGWYRQQPGKERELVAAISVGGGSKHYADSVKGRFTISRDNAKNTVYFQMNSLKPEDTAVYYCAKDYAYQYSFVTYDYWGQGTLVTVSS | low polyreactivity |
| QVQLVESGGGLVQAGGSLRLSCAASGSTFPKYGMGWYRQAPGKEREFVARINWNGGGTYYADSVKGRFTISRDYAKNTVYLQMNSLKPEDTAVYYCNARKRGARFILGYDYWGQGTQVTVSS | low polyreactivity |
| QVQLVESGGGLVQAGGSLRLSCAASGSTFPKYPMGWYRQSPGKERELVASISVTTGSTYYADSVKGRFTISRDNAKHTVYLQMNSLKPEDTAVYYCAKRTYSRKFRGAYNYWGLGTQVTVSS | high polyreactivity |
| QVQLVESGGGLVQAGGSLRLSCAASGSTFPLYTMGWYRQAPGKEREFVAAISRSGGSTYYADSVKGRFTISRDNAKNTVFLQINSLKPEDTAVYYCDTRSYKSRTYDYWGQGTQVSVSS | high polyreactivity |
| QVQLVESGGGLVQAGGSLRLSCAASGSTFPPYAMGWYRQAPGKERELVAAISNVGSTNYADSVKGRFTISRDNAKNTVYLQMNSLKPEETAVYYCAADFWERFALWGWIYLDYDYWGQGTQVTVSS | low polyreactivity |
| QVQLVESGGGLVQAGGSLRLSCAASGSTFPQYAMGWDRQAPGKERELVAVITDSGGSTYYADSVKGRFTISRDNAKNTVYLQKNSLKPEDTAVYYCAARRWSPRSGLGYGYWGQGTQVTVSS | high polyreactivity |
| QVQLVESGGGLVQAGGSLRLSCAASGSTFPQYTMGWSRQAQGKERELVAAITSGGRTYYADSVKGRFTISRDNAKNTVYLQMNSLKPEDTAVYFCAAGYWYRYFYYTSSPYDYWGQGTQVTVSS | high polyreactivity |
| QVQLVESGGGLVQAGGSLRLSCAASGSTFPQYVMGWYRQEPGKERELVAAITKSGGRTYYADSVKGRFTISRDNAKNTVYLQMNSLKPEDTAVYYCAAVRWDISRFRYYSWGHGTQVTVSS | high polyreactivity |
| QVQLVESGGGLVQAGGSLRLSCAASGSTFPRNAMGWYRQAPGKERELVAAITSGGSTYYADSVKGRFTISRDNAKNTVYLQMNSLKPEDTAVYYCAKSRSSYPYRTYYYWGQGTQVTVSS | low polyreactivity |
| QVQLVESGGGLVQAGGSLRLSCAASGSTFPRNAMGWYRQAPGKERELVARITWSGGDTYYADSVKGRFTISRDNSKNTVYLQMISLKPEDTAVYYCAARWYRSVLAKVGYGYWGQGTQVTVSS | high polyreactivity |
| QVQLVESGGGLVQAGGSLRLSCAASGSTFPRYAMGWYRQAPGKERELVAAISSGGSTYYADSVKGRFTISRDNAKNTVYLQMNSLKPEDTAVYYCNARRSRSRYDYWGQGTQVTVSS | high polyreactivity |

| Sequence | polyreactivity (PSR sort gate) |
| --- | --- |
| QVQLVESGGGLVQAGGSLRLSCAASGSTFPRYAMGWYRQAPGKERELVAAISSGGSTYYADSVKGRFTISRDNAKNTVYLQMNSLKPEDTAVYYCNRRPGARYNYWGQGTQVTVSS | high polyreactivity |
| QVQLVESGGGLVQAGGSLRLSCAASGSTFPRYAMGWYRQAPGKERELVADISSGGSTYYADSVKGRFTISRDNAKNTVYLQMNSLKPEDTAVYYCNARRSRSRYDYWGQGTQVTVSS | high polyreactivity |
| QVQLVESGGGLVQAGGSLRLSCAASGSTFPRYAMGWYRQAPGKERELVASITSDGGSTYYADSVKGRFTISRDNAKNTVYLQMNSLKPEDTAFYYCNKVPYRGYRRYGYWGQGTQVTVSS | high polyreactivity |
| QVQLVESGGGLVQAGGSLRLSCAASGSTFPSNAMGWYRQAPGKERELVAAISRSGGSTYYADSVKGRFTISRDNAKNTVYLQMNSLKPEDTAVYYCAVQVRPNSGGTRIHRGGYDYWGQGTQVTVSS | low polyreactivity |
| QVQLVESGGGLVQAGGSLRLSCAASGSTFPSYVMGWSRQAPGKARELVAAISSSGGRTYYADSVKGRFTISRDNAKNTVYLQMNSLKPEDTAVYYCAAKRGPLVYDHDYWGQGTQVTVSS | high polyreactivity |
| QVQLVESGGGLVQAGGSLRLSCAASGSTFPTNAMGWYRQAPGKERELVAGITEGGSSTYYADSVKGRFTISRDNAKNTVYLQMTSLKPEDTAVYYCAAAARAGLKRYYYWGQGTQVTVSS | high polyreactivity |
| QVQLVESGGGLVQAGGSLRLSCAASGSTFPTYAMGWYRQAPGKESELVAAISFSGARTYYADSVKGRFTISRDNAKNTVYLQMNSLKPEDTAVYYCAKDSSYSRRYEYWGQGTQVTVSS | high polyreactivity |
| QVQLVESGGGLVQAGGSLRLSCAASGSTFPVNTMGWYRQAPGKERELVAAISSDDNTNYADSVKGRFTISRDNAKNTVYLQMNSLKPEDTAVYYCAVKGHPAYVEVPPRYAWEFDYWGQGTQVTVSS | low polyreactivity |
| QVQLVESGGGLVQAGGSLRLSCAASGSTFPVYAMGWYRQAPGKERELVAAISLIGGSTYYADSVKGRFTISRDNAKNTVYLQMNSLNPEDTAVYYCNNAVISSPPAIDVLEMDYWGQGTQVTVSS | low polyreactivity |
| QVQLVESGGGLVQAGGSLRLSCAASGSTFPVYAMGWYRQAPGKERELVAAISRAGSTNYADSVKGRFTISRHNAKNTVYLEMNSLKPEDTAVYYCAARGYLWAGEWYVRRDYWGQGTQVTVSS | high polyreactivity |
| QVQLVESGGGLVQAGGSLRLSCAASGSTFPWYAMGWYRQAPGKERELVASITSGTTTNYADSVKGRFTISRDNAKNTVYLQMNSLKPEDTAVYYCAASWVYPYDYWGQGTQVTVSS | low polyreactivity |
| QVQLVESGGGLVQAGGSLRLSCAASGSTFPYNARGWYRQAPGKERELVAAINSNGGSTYYADSVKGRFTISRDNAKNTVYLQMNSLKPEDTAVYYCAAGFYYRPFYGSSHSYGYWGQGTQVTVSS | low polyreactivity |
| QVQLVESGGGLVQAGGSLRLSCAASGSTFPYNVMGWYRQAPGKERELVASISWSGGRQYYADSVKGRFTISRDNAKNTVYLQMNSLKPEDTAVYYCAADAAFPADYWGQGTQVTVSS | low polyreactivity |
| QVQLVESGGGLVQAGGSLRLSCAASGSTFPYYAMGWYRQAPGKERELVAAITSSGGSTYYADSVKGRFTISRDNAKNTVYLQMNSLKPEDTAVYYCAKGYGPYRQMNYWGQGTQVTVSS | low polyreactivity |
| QVQLVESGGGLVQAGGSLRLSCAASGSTFPYYAMGWYRQAPGKERELVAAITSSTGRTYYADSVKGRFTISRDNAKNSVYLQMNSLKPEDSAVYYCNAEVYSDPYNDHDYWGQGTQVTVSS | low polyreactivity |
| QVQLVESGGGLVQAGGSLRLSCAASGSTFPYYAMGWYRQAPGKERELVARISYRGGRTYYADSVKGRFTISRDNAKNTVYLQMNSLKPEDTAVYYCAADRWVYYHSTRYDYWGQGTQVTVSS | high polyreactivity |
| QVQLVESGGGLVQAGGSLRLSCAASGSTFPYYAMGWYRQATGKEREFVASITYGGGSTYYADSVKGRFTISRDNAKNTVYLQMNSLKPEDTAVYYCAAGYIAGRVWYDYWGQGTQVTVSS | low polyreactivity |
| QVQLVESGGGLVQAGGSLRLSCAASGSTFPYYDMGWYRQAPGKERELVAAISWSGDSTYYADSVKGRFTISRDNAKNTVYLQMKSLKAEDTAVYYCNADGKAGGDYDYWGQGTQVTVSS | low polyreactivity |
| QVQLVESGGGLVQAGGSLRLSCAASGSTFPYYPMGWYRQAPGKERELVAAISRGDSTNYADSVKGRFTISRDNAKNTVYLQMNCLKPEDTAVYYCAARLQYRRTSVKYYFWGQGTQVTVSS | high polyreactivity |
| QVQLVESGGGLVQAGGSLRLSCAASGSTFPYYTMGWYRQAPGKEREMVAAITGSGGSTYYADSVKGRFTISRDNAKNTVYLQMNSLKPEDTAVYYCAKRRWDQYFKNRMYFWGQGTQVTVSS | high polyreactivity |
| QVQLVESGGGLVQAGGSLRLSCAASGSTFQANAMAWYRPAPGKERELVAAISSRGGITYYADSVKARFTISRDNAKNTVYLQMNSLKPEDTAVYYCNALPRSTYRQGLGVRLYYWGQGTQVTVSS | high polyreactivity |
